Assay [1] deals with T1, human B7RP-1-Fc (human, UniProt O75144 19-256, limits assumed).
T1 construct: not shown: Fc part
T1 sequence (looked up): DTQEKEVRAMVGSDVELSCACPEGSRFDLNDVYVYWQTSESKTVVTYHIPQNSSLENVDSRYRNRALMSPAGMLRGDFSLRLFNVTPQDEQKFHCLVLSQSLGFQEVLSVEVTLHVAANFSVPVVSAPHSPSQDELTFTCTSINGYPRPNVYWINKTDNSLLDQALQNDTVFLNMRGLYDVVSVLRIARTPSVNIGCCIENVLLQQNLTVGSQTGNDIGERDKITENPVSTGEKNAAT
Nature of the assay: SPR (BIAcore), ICOS-Fc immobilised on CM5, B7RP-1-Fc injected.

Assay [2] concerns the target T1, human B7RP-1-Fc. Nature of the assay: SPR (BIAcore), B7RP-1-Fc immobilised on CM5 or captured by anti-human Fc F(ab')2, scFv injected at 100 nM.

B1: ICOS-Fc (Fc fusion, human, UniProt Q9Y6W8 21-140, looked up)
chain: EINGSANYEMFIFHNGGVQILCKYPDIVQQFKMQLLKGGQILCDLTKTKGSGNTVSIKSLKFCHSQLSNNSVSFFLYNLDHSHANYYFCNLSIFDPPPFKVTLTGGYLHIYESQLCCQLK
notes: also called ICOS (Inducible costimulator) Fc fusion; biotin-labeled ICOS-Fc; not shown: Fc part
On to B1, for which the Kd with human B7RP-1-Fc [1] is around 7 nM.

B2: human anti-human B7RP-1 single-chain Fv antibody clone 223 (scFv, part only; not given: linker and E tag, not shown: small tags and cut ends)
scFv, part: EVQLLQSGADVKKPGASVKVSCTASGYTFTAYYLNWVRQAPGQGLEWMGWLNPTSGDTYYAQKFQGRVTMTRDTSINTAYMELSSLKSDDTAVYYCARDIRSIEVPFDLWGQGTLVTVSSGIVLTQSPGTLSLSPGERVALSCRASQSVTSSFVAWYQQKPGQTPRLLVYGASSRVPGIPDRFSGNGSGTDFTLTITRLEPEDFAIYYCQYYGDSPYTFGQGTKVDIKR
In turn, B2 registered a Kd with human B7RP-1-Fc [2] of 13 to 15 nM.
